We go through two molecules from patent publication US20180172684A1.

Assay [1] has as its target P30 protein of Mycoplasma pneumoniae as present in Mycoplasma pneumoniae analytes (deactivated Mycoplasma pneumoniae Antigen (FH), Meridian; pharyngeal swabs of infected subjects) (Mycoplasma pneumoniae) (UniProt P75330). The experiment in a line: immunochromatography sandwich (Com. Ex. 2), label P30(b), detection P30(b); pharyngeal swab Subject 2.
Assay [2] has the same target. The experiment in a line: immunochromatography sandwich (Com. Ex. 2), label P30(b), detection P30(b); pharyngeal swab Subject 1.
Assay [3] shares this target. The experiment in a line: immunochromatography sandwich (Com. Ex. 1), label P30(a), detection P30(b); pharyngeal swab Subject 2.
For assay [4], the target named is mycoplasma pneumonia P30 (purified protein P30Ag produced by expressing amino acids 96-274 with Escherichia coli) (Mycoplasma pneumoniae) (UniProt P75330). Nature of the assay: immunochromatography sandwich (Com. Ex. 8), label P30(a), detection P30(b); analyte P30Ag.
Assay [5] has as its target P30 protein of Mycoplasma pneumoniae as present in Mycoplasma pneumoniae analytes (deactivated Mycoplasma pneumoniae Antigen (FH), Meridian; pharyngeal swabs of infected subjects) (Mycoplasma pneumoniae) (UniProt P75330). The experiment in a line: immunochromatography sandwich (Com. Ex. 7), label P30(b), detection P30(b); pharyngeal swab Subject 2.
For assay [6] the target is unchanged. The experiment in a line: immunochromatography sandwich (Com. Ex. 6), label P30(a), detection P30(b); pharyngeal swab Subject 1; Triton X-100/Tween 20 diluent.
Assay [7] has the same target. Nature of the assay: immunochromatography sandwich (Com. Ex. 2), label P30(b), detection P30(b); deactivated Mycoplasma pneumoniae (FH).
For assay [8], the target named is mycoplasma pneumonia P30 (purified protein P30Ag produced by expressing amino acids 96-274 with Escherichia coli) (Mycoplasma pneumoniae) (UniProt P75330). Nature of the assay: immunochromatography sandwich, P30(b)-gold label and P30(b) detection line, P30Ag 10 pg/mL, no peptide.
Assay [9] addresses P30 protein of Mycoplasma pneumoniae as present in Mycoplasma pneumoniae analytes (deactivated Mycoplasma pneumoniae Antigen (FH), Meridian; pharyngeal swabs of infected subjects) (Mycoplasma pneumoniae) (UniProt P75330). The experiment in a line: immunochromatography sandwich (Com. Ex. 7), label P30(b), detection P30(b); deactivated Mycoplasma pneumoniae (FH).
For assay [10] the target is unchanged. Nature of the assay: immunochromatography sandwich (Com. Ex. 6), label P30(a), detection P30(b); deactivated Mycoplasma pneumoniae (FH); Triton X-100/Tween 20 diluent.
For assay [11] the target is unchanged. Nature of the assay: immunochromatography sandwich (Com. Ex. 6), label P30(a), detection P30(b); pharyngeal swab Subject 2; Triton X-100/Tween 20 diluent.
For assay [12] the target is unchanged. The experiment in a line: immunochromatography sandwich (Com. Ex. 7), label P30(b), detection P30(b); pharyngeal swab Subject 1.
Assay [13] concerns the target mycoplasma pneumonia P30 (purified protein P30Ag produced by expressing amino acids 96-274 with Escherichia coli) (Mycoplasma pneumoniae) (UniProt P75330). The experiment in a line: ELISA, P30Ag coated at 4 ng/mL, antibody 5 ug/mL, anti-mouse IgG-peroxidase.
Assay [14] has the same target. The experiment in a line: immunochromatography sandwich (Com. Ex. 9), label P30(b), detection P30(b); analyte P30Ag.
The target of assay [15] is P30 protein of Mycoplasma pneumoniae as present in Mycoplasma pneumoniae analytes (deactivated Mycoplasma pneumoniae Antigen (FH), Meridian; pharyngeal swabs of infected subjects) (Mycoplasma pneumoniae) (UniProt P75330). The experiment in a line: immunochromatography sandwich (Com. Ex. 1), label P30(a), detection P30(b); deactivated Mycoplasma pneumoniae (FH).
Assay [16] deals with full-length protein mycoplasma pneumonia P30 (amino acids 1-274; SEQ ID NO: 1) (Mycoplasma pneumoniae) (UniProt P75330). Nature of the assay: ELISA, full-length P30 coated, 5 ug/mL P30(b), no peptide (0 point of the peptide 2 series). Background: An ELISA detects its analyte on a solid surface through an enzyme-linked reagent.
For assay [17] the target is unchanged. Nature of the assay: ELISA, full-length P30 coated, 5 ug/mL P30(b), no peptide (0 point of the peptide 1 series).
Assay [18] concerns the target P30 protein of Mycoplasma pneumoniae as present in Mycoplasma pneumoniae analytes (deactivated Mycoplasma pneumoniae Antigen (FH), Meridian; pharyngeal swabs of infected subjects) (Mycoplasma pneumoniae) (UniProt P75330). Nature of the assay: immunochromatography sandwich (Com. Ex. 1), label P30(a), detection P30(b); pharyngeal swab Subject 1.
Assay [19] concerns the target antibody P30(b) (Fucal Research product Mp-P30-9-AB). Nature of the assay: competitive inhibition ELISA, full-length P30 coated, 5 ug/mL P30(b) + peptide 1 at x640 the antibody concentration.
The target in assay [20] is antibody P30(a) (Fucal Research product Mp-P30-3-AB). The experiment in a line: competitive inhibition ELISA, full-length P30 coated, 5 ug/mL P30(a) + peptide 1 at x40 the antibody concentration.
Assay [21] shares this target. The experiment in a line: competitive inhibition ELISA, full-length P30 coated, 5 ug/mL P30(a) + peptide 1 at x1 the antibody concentration.
Assay [22] deals with antibody P30(b) (Fucal Research product Mp-P30-9-AB). Nature of the assay: competitive inhibition ELISA, full-length P30 coated, 5 ug/mL P30(b) + peptide 1 at x20 the antibody concentration.
The target in assay [23] is antibody P30(a) (Fucal Research product Mp-P30-3-AB). Nature of the assay: competitive inhibition ELISA, full-length P30 coated, 5 ug/mL P30(a) + peptide 1 at x320 the antibody concentration.
Assay [24] concerns the target antibody P30(b) (Fucal Research product Mp-P30-9-AB). The experiment in a line: competitive inhibition ELISA, full-length P30 coated, 5 ug/mL P30(b) + peptide 1 at x10 the antibody concentration.
The target in assay [25] is antibody P30(a) (Fucal Research product Mp-P30-3-AB). Nature of the assay: competitive inhibition ELISA, full-length P30 coated, 5 ug/mL P30(a) + peptide 1 at x160 the antibody concentration.
For assay [26] the target is unchanged. The experiment in a line: competitive inhibition ELISA, full-length P30 coated at 4 ng/mL, 5 ug/mL P30(a) + peptide 1 at 40 times the antibody amount.
Assay [27] has the same target. The experiment in a line: competitive inhibition ELISA, full-length P30 coated, 5 ug/mL P30(a) + peptide 1 at x10 the antibody concentration.
Assay [28] shares this target. The experiment in a line: competitive inhibition ELISA, full-length P30 coated, 5 ug/mL P30(a) + peptide 1 at x80 the antibody concentration.
Assay [29] shares this target. Nature of the assay: competitive inhibition ELISA, full-length P30 coated, 5 ug/mL P30(a) + peptide 1 at x640 the antibody concentration.
Assay [30] shares this target. Nature of the assay: competitive inhibition ELISA, full-length P30 coated, 5 ug/mL P30(a) + peptide 1 at x20 the antibody concentration.
For assay [31], the target named is antibody P30(b) (Fucal Research product Mp-P30-9-AB). The experiment in a line: competitive inhibition ELISA, full-length P30 coated, 5 ug/mL P30(b) + peptide 1 at x1 the antibody concentration.
For assay [32] the target is unchanged. The experiment in a line: immunochromatography competition, 400 ng peptide 1 developed with P30Ag 10 pg/mL, P30(b) label and detection.
The target in assay [33] is antibody P30(a) (Fucal Research product Mp-P30-3-AB). Nature of the assay: immunochromatography competition, 400 ng peptide 1 developed with P30Ag 10 pg/mL, P30(a) label and detection.
In assay [34] the target is antibody P30(b) (Fucal Research product Mp-P30-9-AB). Nature of the assay: competitive inhibition ELISA, full-length P30 coated, 5 ug/mL P30(b) + peptide 1 at x40 the antibody concentration.
Assay [35] shares this target. Nature of the assay: competitive inhibition ELISA, full-length P30 coated, 5 ug/mL P30(b) + peptide 1 at x320 the antibody concentration.
Assay [36] shares this target. The experiment in a line: competitive inhibition ELISA, full-length P30 coated, 5 ug/mL P30(b) + peptide 1 at x160 the antibody concentration.
Assay [37] has the same target. The experiment in a line: competitive inhibition ELISA, full-length P30 coated, 5 ug/mL P30(b) + peptide 1 at x80 the antibody concentration.

“antibody P30(b) (Fucal Research product Mp-P30-9-AB)”: the Color intensity (mAbs) in assay [1] stood at 6.1 mAbs; in assay [2], 8.9 mAbs; in assay [3], 7.9 mAbs; in assay [4], 31.8 mAbs; in assay [5], 8.9 mAbs; in [6], 29.8 mAbs. Moreover, the Color intensity (mAbs) in assay [7] is 18.9 mAbs; in assay [9], 40.5 mAbs; in [10], 159 mAbs; in assay [11], 13.6 mAbs; in assay [12] it was 15.2 mAbs; in assay [14], 24.3 mAbs. The Color intensity (mAbs) in assay [15] is 79.4 mAbs; in assay [18], 16.3 mAbs. This molecule came in with a Color intensity after 15 min in [8] of 58.2 mAbs. This molecule gave an absorbance at 450 nm after subtracting the blank in assay [13] of 0.061 Abs. Moreover, the Color intensity (Abs) in assay [16] and in [17] was 0.208 Abs each time.

As to PGMAPRPGMPPHPGMAPR [Peptide 1 (SEQ ID NO: 6: …)], the Color intensity (Abs) in assay [19] worked out at 0.225 Abs; in [20], 0.24 Abs; in [21], 0.37 Abs; in assay [22], 0.228 Abs; in [23] it was 0.132 Abs; in assay [24] it was 0.256 Abs. The Color intensity (Abs) in [25] turned out to be 0.134 Abs; in [27] it was 0.341 Abs; in assay [28], 0.17 Abs; in assay [29], 0.12 Abs; in assay [30], 0.322 Abs; in assay [31], 0.226 Abs. The Color intensity (Abs) worked out at 0.232 Abs in assay [34], 0.23 Abs in [35], 0.223 Abs in assay [36] and 0.237 Abs in assay [37]. In addition, the Percentage reduction of color intensity (%) stood at 42% in assay [20]; 10% in assay [21]; 68% in assay [23]; 67% in assay [25]; 17% in assay [27]; 59% in [28]. For the same molecule, the Percentage reduction of color intensity (%) in assay [29] amounted to 71%; in [30], 22%. Moreover, the percentage reduction of absorbance in [26] is greater than 30%. Also, the results for the Color intensity after 15 min in assay [32] and in assay [33] were 60.9 mAbs and 100 mAbs, respectively.
